Assay results published in patent US10919943B2, “Mutant proteins enabling agrochemical control of plant gene expression” (The Regents of the University of California, priority 2016, dated 2021).

Tests used:
[1] = test system: 35S::PYR1^MANDI transgenic strain; assay: Thermography of leaf temperature after chemical treatment; assay type: in vivo, Arabidopsis thaliana; details: 1 μM then 10 μM mandipropamid, 24 hours after treatment; FIG. 10
Text: To examine the effects of over-expressing either PYR1*^-MANDI or HAB1* in Arabidopsis thaliana, we made 35S-driven GFP-PYR1*^-MANDI and GFP-HAB1* constructs by cloning the mutant genes into the binary vector pEGAD, and the resultant plasmids were transformed into Agrobacterium tumefaciens. The floral dip method was used to generate T0 transgenic seed for both constructs and the T0 seed was germinated in soil containing glufosinate to select for transgenic T1 plants. The PYR1*^-MANDI T1 plants isolated were grown for ˜5 weeks and then treated with mandipropamid, using comparisons to wild type Columbia plants and a previously constructed 35S::PYR1^MANDI transgenic strain as controls. The treated plants were thermographed 24 hours after chemical applications to examine leaf temperature, which increases after ABA responses are activated, due to reduced transpiration. To examine different mandipropamid concentrations, the plants were first treated with 1 μM mandipropamid and then 3 days later were treated again with 10 μM mandipropamid.

[2] = test system: HAB1; assay: In vitro PP2C assay, ligand-promoted inhibition of GST-HAB1 by receptor; assay type: biochemical, Arabidopsis; details: FIG. 9
Text: In the presence of ABA, wild type PYR1 binds to HAB1 and docks into its active site, which inhibits its enzymatic activity by blocking access of substrates. To characterize the orthogonal PYR1^! and HAB1^! interaction biochemically, we produced recombinant forms of each protein in E. coli, along with the wild type form, and tested the wild type and orthogonal mutant for their ability to inhibit HAB1 and HAB1^! activities in vitro. We cloned PYR1^! into pET28 to generate 6×-His tagged receptor and cloned HAB1^! into pGEX-4T-1 to create a GST-fusion protein. The previously constructed (S.-Y. Park et al., 2009) wild type 6×-His-PYR1 and GST-HAB1 constructs were used for producing recombinant wild type proteins. The 6×-His-tagged receptors and GST-tagged PP2Cs were expressed and purified as previously described. Briefly, the proteins were expressed in BL21 [DE3]pLysS E. coli host cells at 18° C. overnight. Fusion proteins were purified from sonicated lysates using Ni-NTA agarose (Qiagen, USA) or Pierce™ Glutathione Agarose (Thermo Scientific) according to the manufacturer's instructions. PP2C assays were conducted in 96-well polystyrene flat-bottom microtitre plates (Greiner). […] The plates were read using a Victor 2 plate reader (PerkinElmer) (355 nm excitation, 460 nm emission) and assays run in triplicate. The PP2C activity values reported are expressed as percent control values, which were calculated by including the carrier solvent (1% DMSO) and the specific receptor assayed, but no ligand. […]
According to our current understanding, in order for ABA signaling to be initiated in vivo, PP2C activity must be inhibited to enable accumulation of active SnRK2 kinases. […] 4-methylumbeliferyl phosphate was added (1 mM final concentration) was added to the reactions after 30 minutes equilibration and plates were read by fluorimetry. The PP2C activity values reported are expressed as percent control values, which was calculated by including the carrier solvent (1% DMSO) and the specific receptor assayed, but no ligand.

Molecule | leaf temperature [1] | inhibition of HAB1 enzymatic activity ([2]; in response to ABA) | inhibition of wild type HAB1 enzymatic activity ([2]; in response to mandipropamid, 100 nM receptor, 50 nM GST-HAB1)
C#CCOc1ccc(CCNC(=O)C(OCC#C)c2ccc(Cl)cc2)cc1OC (stereo not drawn) [mandipropamid] | strong increase in leaf temperature | – | –
PYR1*^-MANDI: PYR1 mutant with 9 mutations, most sensitive to mandipropamid (protein, listed as Arabidopsis thaliana) MPSELTPEERSELKNSIAEFHTYQLDPGSCSSLHAQRIHAPPELVWSIVRRFDKPQTHRHFIKSCSVEQNFEMRVGCTRDIIVISGLPANTSTERLDILDDERRVTGASIIGGEHRLTNYKGVTTVHRFEKENRIWTVVLESYVVDMPEGNSEDDTRIVVDDVVKLNLQKLATVAEAMARNSGDGSGSQVT | – | does not inhibit | does not substantially inhibit
